Consider five molecules from patent publication US20070117924A1, “Biologically active material conjugated with biocompatible polymer with 1:1 complex, preparation method thereof and pharmaceutical composition comprising the same” (priority 2003, published 2007).

The nature of data set [1]: Half-life of mPEG-Hz-PTH in rats (cAMP in plasma). Particulars: male rats, 100 ug/kg intravenous; FIG. 20.
For a further data set, the system named is UMR-10^6 cell line. As to the kind of experiment: In vitro biological activity of mPEG-PTH conjugate: c-AMP synthesized in UMR-10^6 cell line. The format is cell-based. The following applies: concentration of 10-8 mole, FIG. 19.
Data set [2] is described as follows: Half life of PEG-G-CSF conjugate in rats (serum activity by cell XTT assay). Particulars: 100 ug/kg intravenous, FIG. 8. (Tetrazolium dyes change colour on reduction, which living cells bring about.)
The test system of data set [3] is White Blood Cell (WBC) count. Briefly: White blood cell (WBC) count of PEG-G-CSF-treated rats. It counts as in vivo, Sprague-Dawley rats. Particulars: 100 ug/kg into tail vein, blood 0-96 hrs, FIG. 9.

In the case of unreacted PTH [reference compound], in data set [1], the “detection after administration (not detected)” value is reported as “not detected after 15 mins”. mPEG(5000)-Hz-PTH: the “detection after administration (not detected)” value in data set [1] is “not detected after 15 mins”. In addition, the “activity retained, % of unreacted PTH (c-AMP synthesized)” value (from here on “activity retained, % of unreacted PTH”) with UMR-10^6 cell line amounted to 40%. In the case of mPEG(12000)-Hz-PTH, the “time after administration at which detected” value in data set [1] stood at 1 h. For the same molecule, the “activity retained, % of unreacted PTH” value with UMR-10^6 cell line was 30%.

For mPEG(20000)-Hz-PTH, the “time after administration at which detected” value in data set [1] amounted to 2 h. Besides, in the data set on UMR-10^6 cell line, the “activity retained, % of unreacted PTH” value was 20%.

B1: mPEG(20000)-Hz-G-CSF (conjugate, UniProt P09919 31-207, looked up)
Granulocyte …: TPLGPASSLPQSFLLKCLEQVRKIQGDGAALQEKLVSECATYKLCHPEELVLLGHSLGIPWAPLSSCPSQALQLAGCLSQLHSGLFLYQGLLQALEGISPELGPTLDTLQLDVADFATTIWQQMEELGMAPALQPTQGAMPAFASAFQRRAGGVLVASHLQSFLEVSYRVLRHLAQP
modifications: mPEG 20 kDa via hydrazine linker
In the case of B1, the “half-life compared to native G-CSF” value in data set [2] was “much longer half-life compared to native G-CSF”. For the same molecule, the “WBC counts compared with native G-CSF and Neulasta” value in data set [3] is “higher WBC counts than both native G-CSF and Neulasta™”.
